From IntAct's records for PubMed 28712572 come the findings set out here.

First the molecules themselves.
B1: Gamma-aminobutyric acid receptor-associated protein (Homo sapiens), O95166 (parent)
chain: MKFVYKEEHPFEKRRSEGEKIRKKYPDRVPVIVEKAPKARIGDLDKKKYLVPSDLTVGQFYFLIRKRIHLRAEDALFFFVNNVIPPTSATMGQLYQEHHEEDFFLYIAYSDESVYGL

The variants in this assay derive from B1. The note with it: with pcm1_human PCM1, Q15154.
pcm1_human PCM1, Q15154, sequence (Q15154 whole entry): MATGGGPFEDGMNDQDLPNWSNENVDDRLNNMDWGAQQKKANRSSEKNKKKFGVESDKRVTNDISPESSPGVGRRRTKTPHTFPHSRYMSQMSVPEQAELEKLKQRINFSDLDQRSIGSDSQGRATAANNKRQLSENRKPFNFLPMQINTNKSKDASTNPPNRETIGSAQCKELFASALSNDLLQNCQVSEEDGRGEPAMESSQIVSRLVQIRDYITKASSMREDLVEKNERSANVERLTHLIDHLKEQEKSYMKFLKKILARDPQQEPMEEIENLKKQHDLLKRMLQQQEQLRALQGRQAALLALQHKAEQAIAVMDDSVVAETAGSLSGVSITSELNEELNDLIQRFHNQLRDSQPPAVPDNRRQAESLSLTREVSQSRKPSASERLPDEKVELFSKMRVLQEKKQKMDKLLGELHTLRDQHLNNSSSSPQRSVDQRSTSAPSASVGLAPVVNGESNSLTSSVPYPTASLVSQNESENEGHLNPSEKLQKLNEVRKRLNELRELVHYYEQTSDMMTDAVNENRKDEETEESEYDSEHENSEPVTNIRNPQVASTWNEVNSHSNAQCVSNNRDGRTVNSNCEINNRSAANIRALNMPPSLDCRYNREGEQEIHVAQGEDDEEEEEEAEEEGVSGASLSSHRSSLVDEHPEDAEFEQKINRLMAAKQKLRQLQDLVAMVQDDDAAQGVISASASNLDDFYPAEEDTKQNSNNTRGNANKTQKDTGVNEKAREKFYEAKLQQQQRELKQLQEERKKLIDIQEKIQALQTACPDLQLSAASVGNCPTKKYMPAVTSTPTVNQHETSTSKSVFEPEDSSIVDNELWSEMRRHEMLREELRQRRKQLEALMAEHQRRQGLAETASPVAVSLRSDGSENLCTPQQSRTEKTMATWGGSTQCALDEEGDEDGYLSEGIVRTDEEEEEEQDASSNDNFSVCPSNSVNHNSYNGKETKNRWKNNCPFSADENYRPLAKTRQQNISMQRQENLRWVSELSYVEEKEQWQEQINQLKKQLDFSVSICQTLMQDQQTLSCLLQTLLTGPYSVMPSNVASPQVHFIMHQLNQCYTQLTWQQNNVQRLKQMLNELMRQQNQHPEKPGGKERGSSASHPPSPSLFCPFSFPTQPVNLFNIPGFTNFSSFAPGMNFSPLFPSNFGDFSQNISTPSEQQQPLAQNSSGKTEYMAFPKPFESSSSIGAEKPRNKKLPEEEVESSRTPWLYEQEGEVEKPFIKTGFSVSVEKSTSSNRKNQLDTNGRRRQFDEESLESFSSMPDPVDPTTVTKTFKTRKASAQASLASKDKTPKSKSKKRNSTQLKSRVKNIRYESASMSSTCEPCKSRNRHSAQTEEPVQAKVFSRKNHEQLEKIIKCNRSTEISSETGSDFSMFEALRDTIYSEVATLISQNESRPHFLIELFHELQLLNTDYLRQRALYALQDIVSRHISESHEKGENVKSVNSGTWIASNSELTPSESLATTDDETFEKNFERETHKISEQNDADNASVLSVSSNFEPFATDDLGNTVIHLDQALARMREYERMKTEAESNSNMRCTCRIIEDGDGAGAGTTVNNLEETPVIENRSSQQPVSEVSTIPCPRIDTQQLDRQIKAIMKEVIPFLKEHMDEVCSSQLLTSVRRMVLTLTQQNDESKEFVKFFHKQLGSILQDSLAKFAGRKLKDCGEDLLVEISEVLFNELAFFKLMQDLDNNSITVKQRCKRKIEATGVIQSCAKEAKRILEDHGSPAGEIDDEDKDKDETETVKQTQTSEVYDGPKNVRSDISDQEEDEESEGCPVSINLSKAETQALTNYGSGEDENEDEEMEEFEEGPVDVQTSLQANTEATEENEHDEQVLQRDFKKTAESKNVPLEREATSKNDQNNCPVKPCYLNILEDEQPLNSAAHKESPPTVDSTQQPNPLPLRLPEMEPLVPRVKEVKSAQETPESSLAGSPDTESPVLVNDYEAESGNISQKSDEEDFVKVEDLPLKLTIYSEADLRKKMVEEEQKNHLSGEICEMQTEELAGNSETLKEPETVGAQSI
Turning to G116A, the “effect of a mutation on the interaction” value was “with no effect”.
